For the assay, the target named is SNAP tag–polyproline peptide fusion (…). The assay can be described thus: pull-down.

Turning to “Src^Y527F (from UniProt P00523 84-533) (enzyme)”, the percent of kinase retained by the immobilized SH3 domain ligand came out at 74% and the percent of total kinase retained on beads turned out to be 11%.

The values are drawn from publication PMC4136698.
